Measured values taken from the Human Domainome abundance scans (Beltran et al. 2025).
± gives the uncertainty stated by the source.

B1: POU domain, class 2, transcription factor 1, residues 285 to 354; numbered along this chain, P14859 (parent)
chain: LEELEQFAKTFKQRRIKLGFTQGDVGLAMGKLYGNDFSQTTISRFEALNLSFKNMCKLKPLLEKWLNDAE

Variants of: B1
Test: abundance fitness (aPCA) (normalised: wild type 0, dead -1); higher = more abundant; growth selection in yeast, the domain comes from the species named
Conditions: Homo sapiens

Variant	abundance fitness
K53T	-0.028 ± 0.042
K53R	0.015 ± 0.021
K53Y	-0.122 ± 0.072
K53D	-0.029 ± 0.057
K53G	-0.017 ± 0.023
K53N	0.063 ± 0.21
L50Y	-0.03 ± 0.053
L50P	-0.678 ± 0.026
L50C	0.007 ± 0.036
L50S	-0.151 ± 0.025
L50I	-0.135 ± 0.083
G23H	0.013 ± 0.028
G23Y	-0.028 ± 0.037
G23P	-0.11 ± 0.022
L4M	-0.022 ± 0.23
G34P	0 ± 0.029
G34V	-0.164 ± 0.026
G34K	-0.039 ± 0.042
G34L	-0.151 ± 0.019
G26Y	-0.043 ± 0.041
G26S	0.025 ± 0.023
G26N	-0.033 ± 0.037
G26K	-0.095 ± 0.036
G26L	-0.054 ± 0.022

Variant	abundance fitness
G26E	-0.025 ± 0.032
G26V	-0.005 ± 0.023
E3H	-0.036 ± 0.044
E3P	-0.569 ± 0.043
E3F	-0.159 ± 0.039
E3G	-0.201 ± 0.063
E3C	-0.202 ± 0.046
E3V	-0.118 ± 0.033
K17P	-0.966 ± 0.081
K17Q	-0.023 ± 0.033
L27K	-0.052 ± 0.054
L27A	0.073 ± 0.056
L27V	0.003 ± 0.026
L27R	0.016 ± 0.02
L27W	-0.106 ± 0.041
L27C	0.039 ± 0.044
L27P	-0.31 ± 0.034
L27N	-0.13 ± 0.072
L27H	0.049 ± 0.034
R15T	-1.03 ± 0.1
R15G	-1.03 ± 0.05
R15W	-0.953 ± 0.053
R15F	-0.533 ± 0.077
R15C	-0.655 ± 0.086

Variant	abundance fitness
E70K	0.011 ± 0.12
E70R	-0.36 ± 0.32
E70W	0.071 ± 0.15
E70V	-0.083 ± 0.087
E70S	0.076 ± 0.22
F7C	-0.011 ± 0.13
F7M	-0.263 ± 0.26
F7A	-0.355 ± 0.18
G30Y	0.002 ± 0.045
G30L	-0.015 ± 0.02
G30M	-0.024 ± 0.04
G30Q	0.102 ± 0.12
G30N	-0.113 ± 0.098
G30E	-0.025 ± 0.053
G30I	0.012 ± 0.026
L58C	-0.019 ± 0.029
L58T	-0.07 ± 0.026
L58I	-0.027 ± 0.055
L58M	0.014 ± 0.062
L66I	-0.017 ± 0.046
L66F	-0.258 ± 0.057
L66Y	-0.11 ± 0.084
L66E	-0.433 ± 0.039
L66G	-0.411 ± 0.033

Variant	abundance fitness
L66Q	-0.279 ± 0.056
L66M	0.01 ± 0.033
T21L	-0.284 ± 0.019
T21Q	-0.131 ± 0.031
T21G	-0.113 ± 0.035
T21V	-0.482 ± 0.04
T10Y	-0.063 ± 0.06
T10H	0.019 ± 0.063
T10C	-0.041 ± 0.036
T10M	-0.052 ± 0.029
T10Q	-0.012 ± 0.04
K9R	0.011 ± 0.015
F37R	-0.355 ± 0.032
F37L	-0.003 ± 0.017
F37M	-0.011 ± 0.028
F37G	-0.211 ± 0.027
F37C	0.028 ± 0.046
F37V	0.038 ± 0.029
F37N	-0.337 ± 0.068
F37T	-0.059 ± 0.027
F37Q	-0.214 ± 0.036
F37P	-0.148 ± 0.02
E2G	-0.303 ± 0.1
Q13P	-0.202 ± 0.065

Variant	abundance fitness
Q13M	-0.024 ± 0.022
Q13H	0.015 ± 0.11
A8T	0.004 ± 0.033
A8R	-0.154 ± 0.021
A8W	-0.528 ± 0.041
A8D	-0.968 ± 0.13
A8C	-0.05 ± 0.038
A8H	-0.499 ± 0.064
W65N	-1.05 ± 0.31
W65Q	-0.594 ± 0.046
W65M	-0.22 ± 0.073
W65A	-0.432 ± 0.043
W65F	0.009 ± 0.18
W65P	-0.693 ± 0.086
W65Y	-0.275 ± 0.25
L18T	-0.386 ± 0.073
L18E	-0.326 ± 0.078
L18N	-0.408 ± 0.12
L18W	-0.237 ± 0.1
L18A	-0.046 ± 0.04
L18M	-0.067 ± 0.083
L18H	-0.277 ± 0.12
L18Y	-0.041 ± 0.057
L18D	-0.601 ± 0.099

Variant	abundance fitness
D24R	-0.151 ± 0.026
D24L	-0.192 ± 0.02
D24W	-0.238 ± 0.035
D24T	-0.089 ± 0.027
D24M	-0.11 ± 0.036
D24K	-0.124 ± 0.035
D24P	-0.846 ± 0.033
D24A	-0.058 ± 0.024
R44A	0.013 ± 0.035
R44D	-0.058 ± 0.13
R44Q	0.042 ± 0.027
R44M	-0.032 ± 0.032
Q6T	0.025 ± 0.04
Q6D	-0.086 ± 0.09
Q6L	-0.031 ± 0.019
Q6K	0.034 ± 0.03
Q6W	-0.058 ± 0.032
L32G	-0.107 ± 0.027
L32S	-0.154 ± 0.18
L32F	-0.193 ± 0.23
L32D	-0.078 ± 0.093
N35E	0.025 ± 0.022
N35Q	0 ± 0.021
N35M	-0.108 ± 0.22

Variant	abundance fitness
C56K	-0.201 ± 0.08
C56I	-0.014 ± 0.088
C56Y	0.042 ± 0.081
C56P	-0.681 ± 0.029
F20K	-0.073 ± 0.046
F20C	-0.016 ± 0.065
F20A	-0.035 ± 0.021
F20P	-0.827 ± 0.045
T41Q	-0.028 ± 0.033
T41R	-0.098 ± 0.024
T41S	0.005 ± 0.023
T41F	-0.1 ± 0.055
S51C	-0.086 ± 0.04
S51K	-0.023 ± 0.036
S51N	-0.099 ± 0.073
S51Y	-0.496 ± 0.072
S51I	-0.801 ± 0.22
S51E	0.003 ± 0.035
F52E	-0.035 ± 0.039
F52S	-0.017 ± 0.029
F52Y	0.001 ± 0.028
F52L	-0.005 ± 0.019
F52I	0.013 ± 0.03
